These results are taken from publication PMC5987543.

This assay deals with α-synuclein, P37840. In words: SPR; Biacore X100; monomeric α-syn immobilised on a streptavidin-coated chip; S100A9 injected at increasing concentrations in a single cycle; HBS-P+ (10 mM HEPES, 150 mM NaCl, 0.001% P20), pH 7.4, 25 °C; steady-state fit Rc = C*Rmax/(Kd + C); apparent; three repeats. The following applies: remark: other sources report otherwise.

B1: S100A9, P06702 1-114 (natural protein)
chain: MTCKMSQLERNIETIINTFHQYSVKLGHPDTLNQGEFKELVRKDLQNFLKKENKNEKVIEHIMEDLDTNADKQLSFEEFIMLMARLTWASHEKMHEGDEGPGHHHKPGLGEGTP
Take B1: the Kd was 5 µM.
